Measured values published in paper PMC7327492.

Key:
Recombinant B56α = Recombinant B56α (UniProt Q15172); assay: ITC; purified full-length recombinant B56α and synthetic ADAM17 peptides
YFP-FoxO3 I-C = assay: co-IP; YFP-FoxO3 constructs transfected into HeLa cells, purified using YFP resin, PP2A-B56 binding determined by Western blotting
YFP-FoxO3 L-C = assay: as above
YFP-FoxO3 H-C = assay: as above

PP2A-B56 (endogenous holoenzyme of HeLa cells), sequence (Q15172 whole entry): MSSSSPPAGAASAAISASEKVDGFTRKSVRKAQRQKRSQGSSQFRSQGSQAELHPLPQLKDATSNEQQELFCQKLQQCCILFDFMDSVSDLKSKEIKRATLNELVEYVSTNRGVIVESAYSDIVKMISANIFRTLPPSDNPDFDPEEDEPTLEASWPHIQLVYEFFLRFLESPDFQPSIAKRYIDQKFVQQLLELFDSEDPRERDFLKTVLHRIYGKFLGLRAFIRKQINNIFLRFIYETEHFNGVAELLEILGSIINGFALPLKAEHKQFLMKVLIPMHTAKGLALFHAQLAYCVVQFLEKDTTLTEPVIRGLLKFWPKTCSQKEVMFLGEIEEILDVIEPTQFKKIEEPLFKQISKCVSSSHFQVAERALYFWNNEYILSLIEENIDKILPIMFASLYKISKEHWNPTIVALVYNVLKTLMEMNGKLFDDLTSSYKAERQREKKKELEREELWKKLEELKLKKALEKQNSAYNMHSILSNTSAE
PP2A-B56 (endogenous holoenzyme of HeLa cells), sequence (P30153 whole entry): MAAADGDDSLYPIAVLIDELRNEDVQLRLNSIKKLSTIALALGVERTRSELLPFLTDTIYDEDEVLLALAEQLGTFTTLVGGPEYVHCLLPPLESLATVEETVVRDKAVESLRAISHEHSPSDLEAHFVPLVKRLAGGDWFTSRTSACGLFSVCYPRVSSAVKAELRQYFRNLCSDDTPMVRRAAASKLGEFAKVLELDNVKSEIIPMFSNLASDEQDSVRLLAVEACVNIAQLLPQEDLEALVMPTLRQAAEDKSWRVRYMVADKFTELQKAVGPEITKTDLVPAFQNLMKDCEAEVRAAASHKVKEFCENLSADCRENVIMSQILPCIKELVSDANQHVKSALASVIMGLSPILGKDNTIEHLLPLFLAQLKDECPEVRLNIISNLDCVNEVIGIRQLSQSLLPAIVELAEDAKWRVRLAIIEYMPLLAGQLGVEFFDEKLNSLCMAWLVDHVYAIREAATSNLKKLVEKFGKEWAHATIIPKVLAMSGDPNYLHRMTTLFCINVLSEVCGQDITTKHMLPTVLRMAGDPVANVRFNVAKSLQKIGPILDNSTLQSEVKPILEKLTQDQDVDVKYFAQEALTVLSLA
PP2A-B56 (endogenous holoenzyme of HeLa cells), sequence (P67775 whole entry): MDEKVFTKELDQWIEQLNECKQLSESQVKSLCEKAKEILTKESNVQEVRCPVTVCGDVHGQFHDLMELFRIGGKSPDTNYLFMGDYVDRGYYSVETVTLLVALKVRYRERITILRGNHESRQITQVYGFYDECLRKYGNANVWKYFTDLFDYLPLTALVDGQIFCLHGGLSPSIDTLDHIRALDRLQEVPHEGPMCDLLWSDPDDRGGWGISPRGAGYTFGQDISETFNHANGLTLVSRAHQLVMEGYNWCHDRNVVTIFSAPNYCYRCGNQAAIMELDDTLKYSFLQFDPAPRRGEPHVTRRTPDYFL

| Substance | Kd (Recombinant B56α) [nM] | fold PP2A-B56 bound against wt FoxO3 (YFP-FoxO3 I-C) [fold] | fold PP2A-B56 bound against wt FoxO3 (YFP-FoxO3 L-C) [fold] | fold PP2A-B56 bound against wt FoxO3 (YFP-FoxO3 H-C) [fold] |
| --- | --- | --- | --- | --- |
| synthetic ADAM17 peptide engineered for optimal binding (LDTIQEEE) | 900 | – | – | – |
| PP2A-B56 (endogenous holoenzyme of HeLa cells) (from UniProt Q15172 1-486; P30153 1-589; P67775 1-309) (complex) | – | 4 | 0.5 | 10 |
